Assays:
Assay in all cases: potentiometry
[1] = molecular target: Lys70; details: 298 K, 0.1 M NaClO4, none (HClO4-acidified solution titrated with 0.1 M carbonate-free NaOH under argon)
[2] = molecular target: His323; details: 298 K, 0.1 M NaClO4, none (HClO4-acidified solution titrated with 0.1 M carbonate-free NaOH under argon)
[3] = molecular target: Cys143; details: 298 K, 0.1 M NaClO4, none (HClO4-acidified solution titrated with 0.1 M carbonate-free NaOH under argon)
[4] = molecular target: Asp127; details: 298 K; 0.1 M NaClO4; none (HClO4-acidified solution titrated with 0.1 M carbonate-free NaOH under argon); free (apo) peptide
[5] = Cu(II)-bound, mononuclear 1:1 complex

EMMTPHHQDAIDMAEMALQKAEHPE
pKa [1, 5]: 9.56 | pKa ([1]; free (apo) peptide): 9.94

GACPNRMDAAAAAAAADHIMD
pKa [2, 5]: 5.05 | pKa ([2]; free (apo) peptide): 6.92 | pKa [3, 5]: 7.49 | pKa ([3]; free (apo) peptide): 9.56

GMMGMHQGHGMMAMD
pKa [4]: 3.80
